Measurements published in US8026342B2, “Compositions and methods for binding sphingosine-1-phosphate” (Lpath, Inc., priority 2006, dated 2011).

What was measured:
HT29 tumor = test: SC HT29 colorectal tumor xenograft; type: in vivo, athymic NCr-nu/nu mice; details: LT1009 50 mg/kg ip q2d; Avastin 20 mg/kg iv q4d; 5-FU 75 mg/kg ip q4d
Procedure: Nude mice were implanted sc near the right flank with one fragment per mouse of HT29 tumor from an in vivo passage. All treatments were initiated the day when 60 mice in each experiment established tumors ranging in size from approximately 100 to 200 mm^3. There were ten mice per treatment group. […] 75 mg/kg 5-FU and 20 mg/kg Avastin were administered ip and iv at a dosage of 75 mg/kg/dose and 20 mg/kg/dose, respectively, q4d, injected in a volume of 0.1 mL/10 g body weight.
Animals were observed daily for mortality. Tumor dimensions and body weights were collected twice weekly starting with the first day of treatment and including the day of study termination. When the median tumor in the vehicle-treated control group in each study reached approximately 4,000 mg, the study was terminated. Tumors from each animal were harvested, wet weights were recorded, and tumors were processed for determination of MVD by CD-31 staining. Tumor weights (mg) were calculated using the equation for an ellipsoid sphere (l×w^2)/2=mm^3, where l and w refer to the larger and smaller dimensions collected at each measurement and assuming unit density (1 mm^3=1 mg).

[1] = Circular dichroism thermal denaturation of LT1009; type: physicochemical
Procedure: Circular dichroism spectroscopy was performed separately from the formulation studies. An Aviv 202 CD spectrophotometer was used to perform these analyses. Near UV CD spectra were collected from 400 nm to 250 nm. In this region, the disulfides and aromatic side chains contribute to the CD signals. In the far UV wavelength region (250-190 nm), the spectra are dominated by the peptide backbone. Thermal denaturation curves were generated by monitoring at 205 nm, a wavelength commonly used for b-sheet proteins. Data was collected using 0.1 mg/ml samples with heating from 25° C. to 85° C. Data were collected in 1° C. increments. The total time for such a denaturation scan was between 70 and 90 minutes. The averaging time was 2 seconds.

[2] = tested on: retinal neovascularization; test: Murine model of retinopathy of prematurity: retinal neovascularization; type: in vivo, C57BL/6 mice; details: 5.0 μg/eye intravitreal
Procedure: C57BL/6 mice (n=7) were placed in 75% oxygen at day 7 of life and at day 12 of life were returned to room air and given an intraocular injection of 5 μg of sonepcizumab in one eye and vehicle in the contralateral eye. At day 17, the mice received an intraocular injection of anti-PECAM antibody labeled with FITC and after 8 hours, mice were euthanized and eyes were removed and fixed in PBS-buffered formalin at room temperature for 5 hours. Retinas were dissected and washed with phosphate-buffered saline containing 0.25% Triton X-100 and whole mounted. Slides were viewed with a Nikon Fluorescence Microscope and the area of retinal NV per retina was measured by image analysis.

retinal macrophages = test: Oxygen induced retinopathy (ROP) model: retinal macrophage infiltration; type: in vivo, C57BL/6 mice; details: 5 μg intraocular at day 12, read at day 17
Procedure: At day 17 of life, the mice received an intraocular injection of FITC-labeled antibody to F4/80 (a pan-macrophage marker) and after 8 hours, mice were euthanized. The globes were removed and fixed in PBS-buffered formalin at room temperature for 5 hours. Retinas were dissected and washed with phosphate-buffered saline containing 0.25% Triton X-100 and whole mounted. Slides were viewed with a Nikon Fluorescence Microscope and retinal macrophages were quantified.

[3] = tested on: ovarian cancer (OVCAR3) cells; test: S1P-induced IL-8 release from ovarian cancer cells; type: cell-based, human; details: 1 uM S1P
Procedure: After 22 hours of incubation, cell supernatants were collected and IL-8 secretion was measured by ELISA using an R&D Systems Quantikine human CXCL8/IL-8 kit.
In parallel, all the variants were tested for their effects on S1P-induced cytokine release from cancer cells.

[4] = BIAcore binding of murine anti-S1P mAb to S1P immobilized on chip; details: read-out: affinity (Kd) for S1P
Procedure: Binding kinetics: The binding kinetics of S1P to its receptor or other moieties has, traditionally, been problematic because of the nature of lipids. Many problems have been associated with the insolubility of lipids. For BIAcore measurements, these problems were overcome by directly immobilizing S1P to a BIAcore chip. Antibody was then flowed over the surface of the chip and alterations in […] were measured to determine the binding characteristics of the antibody to S1P. To circumvent the bivalent binding nature of antibodies, S1P was coated on the chip at low densities. Additionally, the chip was coated with various densities of S1P (7, 20, and 1000 RU) and antibody binding data was globally fit to a 1:1 interaction model.

HUVECs = test: HUVEC tube formation on GF-reduced Matrigel; type: cell-based, human; details: co-incubated with S1P
Procedure: FIG. 5 has two panels, A and B. In panel A, S1P is shown to promote neovascularization through induction of HUVECs tube formation and migration, which is reduced by SPHINGOMAB. […] The number of cells that migrated to the Matrigel membrane were counted in five independent fields.
Experiments were performed as described by Visentin et al. (Cancer Cell 2006 March; 9(3):225-38).

[5] = Surface plasmon resonance (Biacore 2000) binding to S1P-coated chip; details: read-out: Binding Affinity (KD1)
Procedure: Each concentration was tested in duplicate. […] All data were collected at 25° C.

[6] = Competitive ELISA for specificity: lipid competitors against anti-S1P mAb binding to coated S1P; details: for recognition of ceramide-1-phosphate (C1P): competitor C1P; for cross-reactivity to lysophosphatidic acid (LPA): competitor LPA
Procedure: As described in Example 1, below, bound antibody was detected by a second antibody, specific for the mouse or human IgG, conjugated with HRP. Chromogenic reactions were measured and reported as optical density (OD). The concentration of lipids used for the competition is indicated on the X-axis.
For cross reactivity, a competitive ELISA was performed as described above, except for the following alterations. The primary incubation consisted of the competitor (S1P, SPH, LPA, etc.) and a biotin-conjugated anti-S1P mAb. Biotinylation of the purified monoclonal antibody was performed using the EZ-Link Sulfo-NHS-Biotinylation kit (Pierce). […] The competitor was prepared as follows: lipid stocks were sonicated and dried under argon before reconstitution in DPBS/BSA [1 mg/ml fatty acid free BSA (Calbiochem) in DPBS (Invitrogen 14040-133)]. Purified anti-S1P mAb was diluted as necessary in PBS/0.5% Triton X-100. Competitor and antibody solutions were mixed together so to generate 3 parts competitor to 1 part antibody. A HRP-conjugated streptavidin secondary antibody (Jackson Immunoresearch) was used to generate signal.
i. Specificity. The humanized variants were tested for specificity in a competitive ELISA assay (FIG. 1) against S1P and several other biolipids.

Molecule: LT1009: humanized anti-S1P IgG1/kappa mAb with Cys to Ala in HCDR2, light chain with 5 backmutations; SEQ ID NO: 31/32
- % Reduction compared to Vehicle-Treated Mice (HT29 tumor): 13%
- Final Tumor Weights (HT29 tumor): 2390.63 mg
- apparent Tm ([1]; pH 6.0): about 77 °C
- apparent Tm ([1]; pH 7.2): approximately 73 °C
- reduction in retinal neovascularization compared to saline control [2]: ~4 fold
- # of macrophages per retina (retinal macrophages): 1136 ± 33
- % reduction in macrophage density (retinal macrophages): 55%
- % reduction in macrophage density (retinal macrophages; listed as S1P antibody): 55.4 ± 1.3%

B1: LT1002: murine anti-S1P monoclonal antibody, IgG1 kappa, from hybridoma clone 306D326.26 (antibody, listed as Mus sp., V domains shown)
VH: QAHLQQSDAELVKPGASVKISCKVSGFIFIDHTIHWMKQRPEQGLEWIGCISPRHDITKYNEMFRGKATLTADKSSTTAYIQVNSLTFEDSAVYFCARGGFYGSTIWFDFWGQGTTLTVS
VL: ETTVTQSPASLSMAIGEKVTIRCITTTDIDDDMNWFQQKPGEPPNLLISEGNILRPGVPSRFSSSGYGTDFLFTIENMLSEDVADYYCLQSDNLPFTFGSGTKLEIK
- reduction of S1P-induced IL-8 release [3]: reduced IL-8 release
- Kd [4]: < 100 pM
- formation of capillary-like structures (HUVECs): failed to form capillary-like structures
- Kd [5]: 26 pM
- Specificity (ELISA) [6]: High
- recognition of ceramide-1-phosphate (C1P) [6]: no antibody binding was observed
- recognition of ceramide-1-phosphate (C1P) ([6]; listed as SPHINGOMAB): did not recognize
- cross-reactivity with dihydrosphingosine-1-phosphate (DH-S1P) ([6]; competitor DH-S1P): did cross react
- recognition of dihydrosphingosine (DH-SPH) ([6]; competitor DH-SPH): did not recognize
- cross-reactivity to lysophosphatidic acid (LPA) [6]: no binding
- cross-reactivity to lysophosphatidic acid (LPA) ([6]; listed as SPHINGOMAB): no cross-reactivity
- recognition of phosphatidyl ethanolamine (PE) ([6]; competitor PE): did not recognize
- recognition of phosphatidyl serine (PS) ([6]; competitor PS): did not recognize
- recognition of sphingomyelin (SM) ([6]; competitor SM): did not recognize
- cross-reactivity with sphingosylphosphoryl choline (SPC) ([6]; competitor SPC): somewhat reduced
- cross-reactivity to sphingosine (SPH) ([6]; competitor SPH): no cross-reactivity
